The target in assay [1] is COS7 IGF-IR (old world monkey (COS7 cells)). Kind of assay: cell-based or functional assay.
Assay [2] concerns the target Rhesus IGF-IR (rhesus, UniProt I2CWY3 31-736; I2CWY3 741-1367). Put plainly: cell-based or functional assay.
Assay [3] addresses T1, human IGF-IR on cells (human, UniProt P08069 31-1367). Put plainly: cell-based or functional assay.
The target in assay [4] is T2, canine IGF-IR (canine, UniProt A0A8I3MER7 10-1344).
T2 construct: whole, on cells
Kind of assay: immunoprecipitation and Western blot on cells. The protocol: (§1) The samples prepared as described above were then analyzed by Western blot. We loaded 12 μl of each sample per lane on 4-10% gradient Novex™ gels run with 1× MES buffer (Novex™). Gels were run at 150V for 1 hour or at 200V for approximately 30 minutes. We then transferred the gel to a membrane in Novex™ transfer buffer with 10% methanol either overnight at 100 mA or for 1-1.5 hours at 250 mA. We then allowed the membrane to dry completely and blocked at room temperature with TBS (Tris-buffered saline pH 8.0) containing Superblock (Pierce Chemical Co.). We added the IGF-IR blotting antibody SC713 (Santa Cruz) to detect immunoprecipitated IGF-IR.
On the technique in general: A western blot detects proteins with antibodies after separation by electrophoresis.

Assay [5] addresses guinea pig IGF-IR (guinea pig, UniProt H0V5D0 31-736; H0V5D0 741-1367). Kind of assay: immunoprecipitation and Western blot on cells. The protocol: as §1
The target in assay [6] is T3, rabbit IGF-IR (rabbit, UniProt G1TLR2 31-1366).
T3 construct: whole, on cells
Put plainly: immunoprecipitation and Western blot on cells. As for the experimental part: as §1

Assay [7] concerns the target T1, human IGF-IR on cells. Put plainly: inhibition of [125I]-IGF-I binding to IGF-IR-transfected NIH-3T3 cells. As for the experimental part: We plated IGF-IR-transfected NIH-3T3 cells (5×10⁴/ml) in 100 μl of DMEM high glucose media supplemented with L-glutamine (0.29 mg/ml), 10% heat-inactivated FBS, and 500 μg/ml each of geneticin, penicillin and streptomycin in 96-well U-bottom plates. We then incubated the plates at 37° C., 5% CO₂ overnight to allow cells to attach. We then decanted the media from the plates and replaced it with 100 μl fresh media per well. For testing, we diluted antibodies in assay media (DMEM high glucose media supplemented with L-glutamine, 10% heat-inactivated FBS, 200 μg/ml BSA and 500 μg/ml each of geneticin, penicillin and streptomycin) to the desired final concentration and added 50 μl per well. All samples were performed in triplicate. We then incubated the plates at 37° C. for ten minutes. […] We incubated the plates for 10 minutes at 37° C., decanted the media by blotting gently onto paper towels and washed twice with assay media. We then lysed the cells by adding 50 μl 0.1 N NaOH, 0.1% SDS and shaking the plates for five minutes at room temperature. We then transferred the samples to a scintillation plate, added 150 μl OptiPhase Supermix and read the signal on a Wallac Micro-Beta counter.

Assay [8] addresses T4, cynomologous IGF-IR (cynomologous).
T4 construct: whole, on cells; also called IGF-IR of cynomologous cells
Put plainly: flow cytometry, biotinylated antibody on cynomologous cells, streptavidin-RPE. As for the experimental part: We performed FACS analysis to determine the affinity of the antibodies of the invention for IGF-IR from other animals, particularly the old world monkeys described above. We incubated aliquots of human and monkey cells (5×10⁵) for 1 hour on ice with increasing concentrations of biotinylated anti-IGF-IR antibodies of the invention or with a biotinylated anti-keyhole limpet hemocyanin (KLH) antibody (Abgenix) as a negative control. We then incubated the samples for 30 minutes on ice with steptavidin-conjugated RPE (phycoerythrin). We measured binding by flow cytometry and analyzed the histograms of fluorescence intensity (Fl2-H) versus cell number (Counts) using CellQuest software. We calculated binding (Kd) for each antibody from graphs of mean fluorescence intensity versus antibody concentration. In most experiments, we measured binding in cultured human MCF-7 cells and either rhesus or cynomologous tissue culture cells. We controlled for depletion of the antibody by measuring binding over a range of cell concentrations.
(In flow cytometry, cells or beads pass a laser one at a time.)

Sequence of guinea pig IGF-IR (alpha, as listed by the source limits assumed, chain 1 of 2): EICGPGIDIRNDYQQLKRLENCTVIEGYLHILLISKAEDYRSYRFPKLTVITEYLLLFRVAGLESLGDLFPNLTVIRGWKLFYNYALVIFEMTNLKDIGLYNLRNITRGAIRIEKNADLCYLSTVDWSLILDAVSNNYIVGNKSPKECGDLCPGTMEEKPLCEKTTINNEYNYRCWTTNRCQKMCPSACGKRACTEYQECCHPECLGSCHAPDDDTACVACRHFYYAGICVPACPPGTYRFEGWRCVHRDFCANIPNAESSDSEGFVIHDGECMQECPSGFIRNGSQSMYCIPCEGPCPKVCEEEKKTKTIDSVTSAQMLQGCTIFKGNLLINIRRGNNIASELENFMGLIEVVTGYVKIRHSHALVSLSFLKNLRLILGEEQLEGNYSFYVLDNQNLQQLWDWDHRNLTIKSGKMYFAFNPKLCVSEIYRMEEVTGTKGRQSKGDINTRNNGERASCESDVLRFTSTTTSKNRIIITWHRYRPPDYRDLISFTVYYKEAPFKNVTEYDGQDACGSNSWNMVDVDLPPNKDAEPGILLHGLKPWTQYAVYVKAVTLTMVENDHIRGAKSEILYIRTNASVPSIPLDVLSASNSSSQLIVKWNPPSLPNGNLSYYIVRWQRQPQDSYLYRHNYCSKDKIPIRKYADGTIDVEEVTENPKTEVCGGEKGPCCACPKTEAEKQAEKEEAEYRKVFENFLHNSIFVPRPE
Sequence of guinea pig IGF-IR (beta, as listed by the source limits assumed, chain 2 of 2): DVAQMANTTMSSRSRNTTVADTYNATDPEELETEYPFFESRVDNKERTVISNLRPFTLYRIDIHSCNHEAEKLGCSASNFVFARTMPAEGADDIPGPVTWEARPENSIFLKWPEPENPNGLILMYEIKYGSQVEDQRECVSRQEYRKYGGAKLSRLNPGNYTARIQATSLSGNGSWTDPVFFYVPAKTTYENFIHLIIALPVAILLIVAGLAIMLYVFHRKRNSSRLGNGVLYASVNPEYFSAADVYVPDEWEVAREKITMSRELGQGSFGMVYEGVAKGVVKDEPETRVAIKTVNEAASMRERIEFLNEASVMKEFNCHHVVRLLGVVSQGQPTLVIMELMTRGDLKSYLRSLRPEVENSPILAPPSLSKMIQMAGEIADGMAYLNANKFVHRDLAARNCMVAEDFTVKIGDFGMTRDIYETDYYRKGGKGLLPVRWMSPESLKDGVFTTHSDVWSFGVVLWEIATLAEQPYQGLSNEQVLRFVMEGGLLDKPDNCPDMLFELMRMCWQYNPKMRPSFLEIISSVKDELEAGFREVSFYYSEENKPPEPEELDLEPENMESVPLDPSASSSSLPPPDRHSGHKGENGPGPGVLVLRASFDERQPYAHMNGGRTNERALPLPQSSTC
T2 sequence (A0A8I3MER7 entry or part of it): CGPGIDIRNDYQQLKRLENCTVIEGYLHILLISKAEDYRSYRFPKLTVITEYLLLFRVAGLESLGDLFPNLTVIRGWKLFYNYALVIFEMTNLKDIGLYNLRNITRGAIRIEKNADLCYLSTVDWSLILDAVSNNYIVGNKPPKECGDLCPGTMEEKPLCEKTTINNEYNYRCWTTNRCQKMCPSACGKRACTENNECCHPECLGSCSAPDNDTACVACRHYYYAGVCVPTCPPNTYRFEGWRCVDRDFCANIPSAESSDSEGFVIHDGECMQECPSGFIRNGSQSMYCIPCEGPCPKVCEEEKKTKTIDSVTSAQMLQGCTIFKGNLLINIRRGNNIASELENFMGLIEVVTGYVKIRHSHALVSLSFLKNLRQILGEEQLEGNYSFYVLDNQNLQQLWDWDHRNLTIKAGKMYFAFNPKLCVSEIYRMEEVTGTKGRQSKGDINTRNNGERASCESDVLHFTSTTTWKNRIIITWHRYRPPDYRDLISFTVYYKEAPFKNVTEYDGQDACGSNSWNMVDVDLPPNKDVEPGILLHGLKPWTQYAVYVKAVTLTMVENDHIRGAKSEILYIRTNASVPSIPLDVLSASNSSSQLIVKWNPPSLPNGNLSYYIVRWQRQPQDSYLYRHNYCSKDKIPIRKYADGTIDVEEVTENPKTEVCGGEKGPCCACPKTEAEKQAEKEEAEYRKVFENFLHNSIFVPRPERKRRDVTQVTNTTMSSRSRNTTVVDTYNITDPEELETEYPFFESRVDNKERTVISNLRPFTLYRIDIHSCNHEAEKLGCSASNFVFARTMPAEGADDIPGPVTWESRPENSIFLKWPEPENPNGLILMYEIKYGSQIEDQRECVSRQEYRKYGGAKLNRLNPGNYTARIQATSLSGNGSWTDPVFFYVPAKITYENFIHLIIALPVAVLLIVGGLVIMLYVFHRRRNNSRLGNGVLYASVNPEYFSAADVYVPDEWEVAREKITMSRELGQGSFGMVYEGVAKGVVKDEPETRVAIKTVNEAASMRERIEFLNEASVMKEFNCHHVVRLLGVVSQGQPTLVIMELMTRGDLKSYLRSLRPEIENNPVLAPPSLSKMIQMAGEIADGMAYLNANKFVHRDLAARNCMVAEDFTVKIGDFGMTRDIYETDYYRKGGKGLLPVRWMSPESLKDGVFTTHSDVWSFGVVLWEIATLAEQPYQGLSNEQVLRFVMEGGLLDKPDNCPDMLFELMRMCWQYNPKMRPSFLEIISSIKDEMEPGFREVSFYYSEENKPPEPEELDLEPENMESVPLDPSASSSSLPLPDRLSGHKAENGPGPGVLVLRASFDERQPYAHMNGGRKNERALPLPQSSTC
Sequence of Rhesus IGF-IR (alpha, as listed by the source limits assumed, chain 1 of 2): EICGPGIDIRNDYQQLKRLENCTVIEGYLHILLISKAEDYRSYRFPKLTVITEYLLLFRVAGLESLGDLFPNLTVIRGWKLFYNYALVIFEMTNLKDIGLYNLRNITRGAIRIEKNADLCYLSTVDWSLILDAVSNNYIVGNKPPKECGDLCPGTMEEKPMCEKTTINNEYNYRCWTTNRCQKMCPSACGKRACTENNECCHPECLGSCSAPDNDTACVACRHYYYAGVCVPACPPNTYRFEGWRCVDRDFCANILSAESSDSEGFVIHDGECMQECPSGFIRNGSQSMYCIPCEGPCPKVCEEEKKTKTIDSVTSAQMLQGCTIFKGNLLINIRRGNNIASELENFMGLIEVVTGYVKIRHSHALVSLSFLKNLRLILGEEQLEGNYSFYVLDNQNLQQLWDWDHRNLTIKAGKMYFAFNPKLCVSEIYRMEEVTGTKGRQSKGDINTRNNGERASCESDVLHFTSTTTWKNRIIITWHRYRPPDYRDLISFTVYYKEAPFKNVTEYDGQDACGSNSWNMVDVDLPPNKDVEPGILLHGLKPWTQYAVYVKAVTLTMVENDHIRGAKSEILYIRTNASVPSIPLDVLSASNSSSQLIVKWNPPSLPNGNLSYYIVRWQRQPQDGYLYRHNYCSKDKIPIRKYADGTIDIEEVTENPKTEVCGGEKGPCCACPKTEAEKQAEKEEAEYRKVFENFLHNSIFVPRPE
Sequence of Rhesus IGF-IR (beta, as listed by the source limits assumed, chain 2 of 2): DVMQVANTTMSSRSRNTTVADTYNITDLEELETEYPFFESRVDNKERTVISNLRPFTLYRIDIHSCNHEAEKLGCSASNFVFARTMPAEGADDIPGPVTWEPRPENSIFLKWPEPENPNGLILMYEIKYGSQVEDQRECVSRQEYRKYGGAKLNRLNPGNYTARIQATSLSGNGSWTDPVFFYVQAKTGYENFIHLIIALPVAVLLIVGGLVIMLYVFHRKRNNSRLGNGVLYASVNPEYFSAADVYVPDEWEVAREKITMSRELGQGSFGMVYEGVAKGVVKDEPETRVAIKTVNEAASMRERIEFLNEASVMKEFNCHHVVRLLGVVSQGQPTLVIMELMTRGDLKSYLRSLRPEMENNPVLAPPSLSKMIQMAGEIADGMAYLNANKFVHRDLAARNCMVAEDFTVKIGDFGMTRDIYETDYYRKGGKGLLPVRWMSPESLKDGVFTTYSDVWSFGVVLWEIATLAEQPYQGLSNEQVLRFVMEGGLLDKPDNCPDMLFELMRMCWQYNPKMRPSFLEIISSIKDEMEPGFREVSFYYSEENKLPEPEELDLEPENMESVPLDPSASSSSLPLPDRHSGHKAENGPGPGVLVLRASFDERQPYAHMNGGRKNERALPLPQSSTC

B1: anti-IGF-IR antibody 4.9.2 (antibody, human IgG2, V domains shown)
VH: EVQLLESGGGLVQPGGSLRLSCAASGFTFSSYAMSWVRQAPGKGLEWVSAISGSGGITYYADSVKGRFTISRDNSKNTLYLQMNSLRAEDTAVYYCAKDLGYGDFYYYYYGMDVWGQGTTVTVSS
VL: DIQMTQSPSSLSASVGDRVTITCRASQGIRSDLGWFQQKPGKAPKRLIYAASKLHRGVPSRFSGSGSGTEFTLTISRLQPEDFATYYCLQHNSYPLTFGGGTKVEIK
notes: Human IgG2 kappa; Biotinylated in the FACS assay
One may read the IC50 as the concentration at which inhibition is half-maximal. As a reminder, the Kd is the free concentration of one partner at which half of the binding sites on the other are occupied at equilibrium, for simple one-to-one binding. With B1, the “IC50 of inhibition of IGF-I-induced phosphorylation of IGF-IR (immunoprecipitation, Western blot with HRP-PY54)” value in assay [1] was 0.02 µg/mL; in assay [2], 0.005 µg/mL. In addition, the “IC50 of inhibition of IGF-I-induced tyrosine phosphorylation of IGF-IR (ELISA, IGF-IR-transfected NIH-3T3 cells)” value in assay [3] was determined as 0.0324 µg/mL. For the same molecule, the binding result in assay [4], in assay [5] and in assay [6] was “no binding (tested: 1 µg/ml)” throughout. Besides, the concentration for half-maximal inhibition (IC50) in assay [7] is 0.1 µg/mL. Further, the equilibrium dissociation constant (Kd) in assay [8] was 0.1 µg/mL.

B2: anti-IGF-IR antibody 2.12.1 (antibody, V domains shown)
VH: QAQLVESGGGLVKPGGSLRLSCAASGFTFSDYYMSWIRQAPGKGLEWVSYISSSGSTRDYADSVKGRFTISRDNAKNSLYLQMNSLRAEDTAVYYCVRDGVETTFYYYYYGMDVWGQGTTVTVSS
VL: DIQMTQSPSSLSASVGDRVTFTCRASQDIRRDLGWYQQKPGKAPKRLIYAASRLQSGVPSRFSGSGSGTEFTLTISSLQPEDFATYYCLQHNNYPRTFGQGTEVEIIR
notes: Fully human IgG2 kappa from a XenoMouse hybridoma; Biotinylated in the FACS assay
In the case of B2, the “IC50 of inhibition of IGF-I-induced tyrosine phosphorylation of IGF-IR (ELISA, IGF-IR-transfected NIH-3T3 cells)” value in assay [3] stood at 0.172 µg/mL. Also, the binding result in assay [4], in assay [5] and in assay [6] was “no binding (tested: 1 µg/ml)” in each case. For the same molecule, the concentration for half-maximal inhibition (IC50) in assay [7] stood at 0.45 µg/mL.

B3: anti-IGF-IR antibody 2.14.3 (antibody, human IgG2, V domains shown)
VH: GPGLVKPSETLSLTCTVSGGSISNYYWSWIRQPAGKGLEWIGRIYTSGSPNYNPSLKSRVTMSVDTSKNQFSLKLNSVTAADTAVYYCAVTIFGVVIIFDYWGQGTLVTVSS
VL: SSLSASVGDRVTFTCRASQDIRRDLGWYQQKPGKAPKRLIYAASRLQSGVPSRFSGSGSGTEFTLTISSLQPEDFATYYCLQHNNYPRTFGQGTEVEIIR
For the molecule B3, in assay [3], the “IC50 of inhibition of IGF-I-induced tyrosine phosphorylation of IGF-IR (ELISA, IGF-IR-transfected NIH-3T3 cells)” value was determined as 0.325 µg/mL.

B4: anti-IGF-IR antibody 2.13.2 (antibody, V domains shown)
VH: EVQLLESGGGLVQPGGSLRLSCTASGFTFSSYAMNWVRQAPGKGLEWVSAISGSGGTTFYADSVKGRFTISRDNSRTTLYLQMNSLRAEDTAVYYCAKDLGWSDSYYYYYGMDVWGQGTTVTVSS
VL: DIQMTQFPSSLSASVGDRVTITCRASQGIRNDLGWYQQKPGKAPKRLIYAASRLHRGVPSRFSGSGSGTEFTLTISSLQPEDFATYYCLQHNSYPCSFGQGTKLEIKR
notes: as for B2
In the case of B4, the “IC50 of inhibition of IGF-I-induced phosphorylation of IGF-IR (immunoprecipitation, Western blot with HRP-PY54)” value in assay [1] was 0.02 µg/mL; in assay [2], 0.005 µg/mL. Besides, the “IC50 of inhibition of IGF-I-induced tyrosine phosphorylation of IGF-IR (ELISA, IGF-IR-transfected NIH-3T3 cells)” value in assay [3] was found to be 0.0812 µg/mL. Also, the binding result in assay [4], in assay [5] and in assay [6] was “no binding (tested: 1 µg/ml)” in each case. This molecule came in with an IC50 in assay [7] of 0.18 µg/mL. In addition, the dissociation constant (Kd) in assay [8] came out at 0.1 µg/mL.

For the origin of these results see patent US20040086503A1 (Amgen, published 2004).
